9 molecules from paper PMC10273302 (Science (New York, N.Y.), 2023) can be followed below.

Changes are numbered by the printed parent chain.

To fix the notation:
T1: EBV minimal peptide PPSTSSKLRPRWTFT (spotted for dot blot) (Human herpesvirus 4 (Epstein-Barr …))
T1 construct: also called EBV gp350 minimal peptide; 72153; source: "recombinant peptide" spotted on nitrocellulose
T1 chain: PPSTSSKLRPRWTFT

B1: EBV_c150 (antibody, V domains shown)
VH: QVLLVQSGAEVRKPGASVKLSCTASGYNFTNYYIHWVRQAPGQGLEWMGILNPTGGGTIYPHNFRGRVTMTRETSTSTAYMELKNLTSDDTAVYYCARVPPDDGYFDYWGQGALVTVSS
VL: SYEPTQPPSVSVSPGQTARITCSGDALPKRYVYWYQQKSGQAPALVIYDDTKRPSGIPERFSGSSSGTMATLTINGAQVEDEADYYCYTTGSSVSHVVFGGGTKLTVL
notes: recombinant human IgG
B2: EBV_c40 (antibody, V domains shown)
VH: QVQMVQSGAEVKRPGDSVRVSCKASGYIFTNYHLHWVRQAPGQGLEWMGIVTPNGSRTNYAQKFKGRVIMSSEASTNTLYMDLSSLKSEDTAVYFCARARDLYGDSDFDYWGQGTPVMVSS
VL: SYELSQPPSVSVSPGQTASVSCSGDSLGDKYVSWYQQRPGQSPVVVIYQDRKRPSGIPERFSGSNSGKAATLTISGAQAVDEATYFCQAWESSNVVFGGGTTLTVL
notes: recombinant human IgG
B3: EBV_c9 (antibody, V domains shown)
VH: QVQLVQSGAEVKKPGASVKISCKASGYNFTNYYMHWVRQAPGQGLEWMGVINPHDNTNYAQKFRGRFIVTKDTSTTTLHMELRGLRSEDTAVYYCARGPDYVGISSPFDYWGQGTLVTVSS
VL: SHELTQPPSVPVSPGQTARITCSGDGLPKNYAYWYQQKSGQAPVLVIYEDRKRPSGIPERFSGSSSGTMATLTISGAQVEDEADYYCYSGDSNGNHWVFGGGTKLTVL
notes: recombinant human IgG
B4: EBV_c61 (antibody, V domains shown)
VH: B3 VH with I20V, Y33F, I51L, P53S, H54G, D55A, K71R, G84S, Y101S, V102S
VL: B3 VL with Y31F, Q37K, M69T, V79E, E80D, D84E, S92T
notes: recombinant human IgG
B5: EBV_c149 (antibody, V domains shown)
VH: QVQLVQSGAEVKKPGASVKVSCKASGYNFTNYYMHWVRQAPGQGLEWMGVINPDGGSTSYAQKFRGRFIVTRDTSTTTLHMELRSLRSEDTAVYFCARGPDYVGISSPFDFWGQGTLVTVSS
VL: B3 VL
notes: recombinant human IgG
B6: EBV_c19 (antibody, V domains shown)
VH: QVQLVQSGAEVKKPGASVKLSCKASGYNFTNYYMHWVRQAPGQGLEWMGVINHGGLTNYAQRFRGRFIVTRDTSTTTLHMELRSLRSEDTAVYYCARGPDYGGNSSPFDNWGQGTLVTVSS
VL: B3 VL with S92I
notes: recombinant human IgG
B7: EBV_c101 (antibody, V domains shown)
VH: QVHLVQSGTEVKKPGASVKVSCKASGYTFIDYFIHWVRQAPGQGLEWMGIINPGGGSTSYAQKFRGRVTVTRDASTSTVYLELRSLRSDDSAVYYCARGTAVSTNLGLLFDLWGQGTLVSVSS
VL: SYELTQPPSVSVSPGQTARITCSGDDLPKNYAYWYQQKSGQAPTLVINEDNKRPSGIPERFSGSSSGTMATLTISGAQVEDEADYYCFSADSSGTHSVFGGGTKVTVL
notes: recombinant human IgG
B8: EBV_c3 (antibody, V domains shown)
VH: QVHLVQSGAEVKKSGASVKVSCKASGFTFTNHDINWVRQAPGQGLEWMGWINPNSGNTGFAQKFRGRVTLTRNNSITTAYMELRGLTYEDTAIYYCARAFCNSDRCSPELFDPWGQGTLVTVSS
VL: QSVLTQPPSVSADPGQRVTISCSGSSSNIGNSYVSWYQQLPGTAPRFLIYDNNKRTSGIPDRFSGSKSGTSATLAITGLQTGDEADYYCATWDTSLRGVVFGGGTKLTVL
notes: recombinant human IgG; source: Expi293 or ExpiCHO, recombinant; filtered culture supernatant
B9: EBV_c186 (antibody, V domains shown)
VH: QVHLVQSGTEVRKPGASVKISCETSGFNFSDYYVHWVRQAPGQGLEWMGIINAGGGSTSYAQRFRGRVTVTRDTSTRSVYMELRSLAPNDTAVYYCTRDRDQRLLFDYWGQGSLLIVSS
VL: SSELTQPPSVSVSPGQTARITCSGDALPKNYAYWYQQKSGQAPVLVIYEDNKRPSGIPERFSGSSSGTTATLTISGAQMEDEGDYYCYSKDRFGGGTKVTVL
notes: recombinant human IgG

In the assay the target is T1, EBV minimal peptide PPSTSSKLRPRWTFT …. The assay is described as follows: far-Western, overlay or dot blot. Conditions: one partner purified.
With B1, the binding result was “binds”. Consider B2, for which the binding result is reported as “binds”. Consider B3, for which the binding result is recorded as “binds”. Next, B4: “binds”; B5: “binds”. Turning to B6, the binding result is reported as “binds”. Next, B7: “binds”; B8: “binds”; B9: “binds”.
